{"source": "patent US20250376529A1", "about": "(Amgen, published 2025)", "binders": {"B1": {"name": "4H9.004.005 (antibody, human IgG1, kappa, N297G, V domains shown)", "VH": "not shown", "VL": "DIQMTQSPSSLSASVGDRVTITCRASQGIRNELGWYQQKPGKAPKRLIYGASSLQSGVPSRFSGSGSGTEFTLTISSLQPEDFVTYYCLQHNSYPFTFGQGTKVDVKR"}, "B2": {"name": "4H9.004.006 (antibody, human IgG1, kappa, N297G, V domains shown)", "VH": "not shown", "VL": "B1 VL with R46L"}, "B3": {"name": "5G12.006.001 (antibody, human IgG1, kappa, N297G)", "heavy": "not shown", "light": "DIQLTQSPSSLSASVGDRVTITCRASQTISRFLNWYQQKPGKAPELLIYVASSLQSGVPSRFSGSGSGTDFTLTISSLQPEDFATYYCQQSYSTLISFGQGTKLEIKRTVAAPSVFIFPPSDEQLKSGTASVVCLLNNFYPREAKVQWKVDNALQSGNSQESVTEQDSKDSTYSLSSTLTLSKADYEKHKVYACEVTHQGLSSPVTKSFNRGEC"}, "B4": {"name": "5G12.005.001 (antibody, human IgG1, kappa, N297G, V domains shown)", "VH": "not shown", "VL": "DIQLTQSPSSLSASVGDRVTITCRASQTISRFLNWYQQKPGKAPKLLIYVASSLQSGVPSRFSGSGSGTDFTLTISSLQPEDFATYYCQQSYSTLLSFGQGTKLEIKR"}, "B5": {"name": "5G12.006 (antibody, human IgG1, kappa, N297G, V domains shown)", "VH": "QVQLVESGGGVVQPGRSLRLSCTASGFTFSSYGIHWVRQAPGKGLEWVAVIWYDGSNKFHADSVKGRFTISRDNSKNTLYLQMNSLRAEDSAMYFCARGKVAGMPEAFEIWGQGTKVTVSS", "VL": "B4 VL with K45E, L96I, K107T"}, "B6": {"name": "5G12.006.005 (antibody, human IgG1, kappa, N297G, V domains shown)", "VH": "B5 VH with T23A, G55A", "VL": "B4 VL with K45E, L96I"}, "B7": {"name": "5G12.006.006 (antibody, human IgG1, kappa, N297G, V domains shown)", "VH": "not shown", "VL": "B4 VL with K45E, L96I"}, "B8": {"name": "5G12.006.002 (antibody, human IgG1, kappa, N297G, V domains shown)", "VH": "not shown", "VL": "B4 VL with K45E, L96I"}, "B9": {"name": "2G10_LC1.003 (antibody, human IgG1, kappa, N297G, V domains shown)", "VH": "not shown", "VL": "EIVMTQSPATLSVSPGERATLSCRASQSVSSNLAWYQQKPGQAPRLLIYGAATRATGIPARFSGSGSGTEFTLTISSLQSEDFAVYYCQQYNNWPLTFGGGTKVEIKR"}, "B10": {"name": "2G10_LC1.007 (antibody, human IgG1, kappa, N297G, V domains shown)", "VH": "not shown", "VL": "B9 VL with Q79E, S80P, W94F"}, "B11": {"name": "2G10_LC1.005 (antibody, human IgG1, kappa, N297G, V domains shown)", "VH": "not shown", "VL": "B9 VL"}, "B12": {"name": "2G10_LC1 (antibody, human IgG1, kappa, N297G, V domains shown)", "VH": "QVQLVESGGGVVQPGRSLRLSCAASGFTFSNYGMHWVRQAPGEGLEWVAAIWFDGSDKYYADSVKGRFTISRDNSKNTLYLQMNSLRAEDTAVYYCARDQAIFGVVPDYWGQGTLVTVSS", "VL": "B9 VL with F62V"}, "B13": {"name": "2G10_LC1.004 (antibody, human IgG1, kappa, N297G, V domains shown)", "VH": "B12 VH with G55A", "VL": "B9 VL"}, "B14": {"name": "6A5.004.007 (antibody, human IgG1, kappa, N297G, V domains shown)", "VH": "QVQLVESGGGVVQPGRSLRLSCAASGFSFSSYGMHWVRQPPGKGLEWVAAIWYDANNKYYADAVKGRFTISRDSSKNTLYLQMNSLRAEDTAVYYCARDRTIFGVVLEYWGQGTLVTVSS", "VL": "not shown"}, "B15": {"name": "6A5.004.008 (antibody, human IgG1, kappa, N297G, V domains shown)", "VH": "B14 VH with A55G", "VL": "DIQMTQSPSSLSASVGDRVTITCQASQDITNYLNWYQQKPGKAPKLLIYDASNLEPGVPSRFSGSGSGTDFTLTISSLQPEDFATYYCQQYDDLFTFGPGTKVDIKR"}, "B16": {"name": "6H1.009 (antibody, human IgG1, kappa, N297G)", "heavy": "not shown", "light": "DIQMTQSPSSLSASIGDRVTITCRASQDIRDYLGWYQQKPGKAPKRLIYGASSLQSGVPSRFSGSGSGTEFTLTISSLQPEDFATYYCLQHNNYPFTFGQGTKVDIKRTVAAPSVFIFPPSDEQLKSGTASVVCLLNNFYPREAKVQWKVDNALQSGNSQESVTEQDSKDSTYSLSSTLTLSKADYEKHKVYACEVTHQGLSSPVTKSFNRGEC"}, "B17": {"name": "18F2.009 (antibody, human IgG1, kappa, N297G, V domains shown)", "VH": "not shown", "VL": "B1 VL with V15I, G28D, I29L, E32Y, R46L, V84A, S93N, Q100P, V106I"}, "B18": {"name": "18F2.002 (antibody, human IgG1, kappa, N297G, V domains shown)", "VH": "not shown", "VL": "B1 VL with V15I, G28D, I29L, E32Y, R46L, V84A, S93N, Q100P, V106I"}, "B19": {"name": "18F2.006 (antibody, human IgG1, kappa, N297G, V domains shown)", "VH": "QVQLVESGGGVVQPGRSLRLSCAASGFTFSNFGMHWVRQAPGKGLEWVAVIWYDASNENYADAVKGRFTISRDNSKNTLYLHMNSLRAADTAVYYCARDGTIFGVVLGDYWGQGTLVTVSS", "VL": "B1 VL with V15I, G28D, I29L, E32Y, V84A, S93N, Q100P, V106I"}, "B20": {"name": "18F2 (antibody, human IgG1, kappa, N297G, V domains shown)", "VH": "B19 VH with A55G, A63S", "VL": "B1 VL with V15I, G28D, I29L, E32Y, Q37H, V84A, S93N, Q100P, V106I"}, "B21": {"name": "18F2.004 (antibody, human IgG1, kappa, N297G, V domains shown)", "VH": "not shown", "VL": "B1 VL with V15I, G28D, I29L, E32Y, Q37H, R46L, V84A, S93N, Q100P, V106I"}, "B22": {"name": "18F2.008 (antibody, human IgG1, kappa, N297G, V domains shown)", "VH": "not shown", "VL": "B1 VL with V15I, G28D, I29L, E32Y, Q37H, V84A, S93N, Q100P, V106I"}, "B23": {"name": "18F2.007 (antibody, human IgG1, kappa, N297G, V domains shown)", "VH": "B19 VH", "VL": "B1 VL with V15I, G28D, I29L, E32Y, Q37H, R46L, V84A, S93N, Q100P, V106I"}, "B24": {"name": "18F2.010 (antibody, human IgG1, kappa, N297G, V domains shown)", "VH": "B19 VH with A63S, H82Q", "VL": "B1 VL with V15I, G28D, I29L, E32Y, R46L, V84A, S93N, Q100P, V106I"}, "B25": {"name": "18F2.005 (antibody, human IgG1, kappa, N297G, V domains shown)", "VH": "not shown", "VL": "B1 VL with V15I, G28D, I29L, E32Y, V84A, S93N, Q100P, V106I"}, "B26": {"name": "18F2.003 (antibody, human IgG1, kappa, N297G, V domains shown)", "VH": "B19 VH", "VL": "B1 VL with V15I, G28D, I29L, E32Y, R46L, V84A, S93N, Q100P, V106I"}}, "note": "Numbering of substitutions follows the chain as printed.", "data": [{"biological_target": "T1, Rhesus GIPR (rhesus, UniProt F7E1R9 22-466)", "T1 sequence": "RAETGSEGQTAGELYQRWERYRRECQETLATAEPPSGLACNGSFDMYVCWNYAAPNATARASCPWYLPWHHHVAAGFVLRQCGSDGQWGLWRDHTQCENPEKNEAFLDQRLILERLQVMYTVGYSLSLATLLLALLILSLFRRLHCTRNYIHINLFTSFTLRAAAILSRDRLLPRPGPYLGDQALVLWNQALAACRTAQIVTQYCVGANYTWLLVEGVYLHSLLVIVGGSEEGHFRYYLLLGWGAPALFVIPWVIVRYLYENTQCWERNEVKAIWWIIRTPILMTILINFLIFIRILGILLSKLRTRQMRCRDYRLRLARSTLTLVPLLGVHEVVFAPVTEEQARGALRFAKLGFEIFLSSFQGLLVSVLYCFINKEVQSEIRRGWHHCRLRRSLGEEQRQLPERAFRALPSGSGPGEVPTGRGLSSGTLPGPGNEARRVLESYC", "assay": "cell-based or functional assay", "units": {"Rhesus GIPR CAMP Assay (Conc. mAb @ 60% Inhibition in nM)": "nM"}, "values": [{"binder": "B1", "Rhesus GIPR CAMP Assay (Conc. mAb @ 60% Inhibition in nM)": 0.65}, {"binder": "B2", "Rhesus GIPR CAMP Assay (Conc. mAb @ 60% Inhibition in nM)": 0.35}, {"binder": "B3", "Rhesus GIPR CAMP Assay (Conc. mAb @ 60% Inhibition in nM)": 0.9}, {"binder": "B4", "Rhesus GIPR CAMP Assay (Conc. mAb @ 60% Inhibition in nM)": 10.9}, {"binder": "B5", "Rhesus GIPR CAMP Assay (Conc. mAb @ 60% Inhibition in nM)": 0.8}, {"binder": "B6", "Rhesus GIPR CAMP Assay (Conc. mAb @ 60% Inhibition in nM)": 5.3}, {"binder": "B7", "Rhesus GIPR CAMP Assay (Conc. mAb @ 60% Inhibition in nM)": 0.9}, {"binder": "B8", "Rhesus GIPR CAMP Assay (Conc. mAb @ 60% Inhibition in nM)": 1}, {"binder": "B9", "Rhesus GIPR CAMP Assay (Conc. mAb @ 60% Inhibition in nM)": 0.85}, {"binder": "B10", "Rhesus GIPR CAMP Assay (Conc. mAb @ 60% Inhibition in nM)": 16.3}, {"binder": "B11", "Rhesus GIPR CAMP Assay (Conc. mAb @ 60% Inhibition in nM)": 0.43}, {"binder": "B12", "Rhesus GIPR CAMP Assay (Conc. mAb @ 60% Inhibition in nM)": 0.67}, {"binder": "B13", "Rhesus GIPR CAMP Assay (Conc. mAb @ 60% Inhibition in nM)": 0.58}, {"binder": "B14", "Rhesus GIPR CAMP Assay (Conc. mAb @ 60% Inhibition in nM)": 0.61}, {"binder": "B15", "Rhesus GIPR CAMP Assay (Conc. mAb @ 60% Inhibition in nM)": 0.82}, {"binder": "B16", "Rhesus GIPR CAMP Assay (Conc. mAb @ 60% Inhibition in nM)": 0.15}, {"binder": "B17", "Rhesus GIPR CAMP Assay (Conc. mAb @ 60% Inhibition in nM)": 1.28}, {"binder": "B18", "Rhesus GIPR CAMP Assay (Conc. mAb @ 60% Inhibition in nM)": 2.23}, {"binder": "B19", "Rhesus GIPR CAMP Assay (Conc. mAb @ 60% Inhibition in nM)": 0.52}, {"binder": "B20", "Rhesus GIPR CAMP Assay (Conc. mAb @ 60% Inhibition in nM)": 0.8}, {"binder": "B21", "Rhesus GIPR CAMP Assay (Conc. mAb @ 60% Inhibition in nM)": 2.72}, {"binder": "B22", "Rhesus GIPR CAMP Assay (Conc. mAb @ 60% Inhibition in nM)": 1.76}, {"binder": "B23", "Rhesus GIPR CAMP Assay (Conc. mAb @ 60% Inhibition in nM)": 1.94}, {"binder": "B24", "Rhesus GIPR CAMP Assay (Conc. mAb @ 60% Inhibition in nM)": 1.75}, {"binder": "B25", "Rhesus GIPR CAMP Assay (Conc. mAb @ 60% Inhibition in nM)": 1.13}, {"binder": "B26", "Rhesus GIPR CAMP Assay (Conc. mAb @ 60% Inhibition in nM)": 2.01}]}]}
